Experimental findings from article PMC2647743 (Bioconjugate chemistry, 2008) are described below.

SMILES strings stand for the structures.

The nature of data set [1]: Biodistribution. The conditions noted are these: ICR SCID, mouse, in vivo, 185 kBq, total radioactivity, tumor uptake, PC-3 tumor bearing SCID mice, 15 min post-injection.
For data set [2], the system named is PC-3 tumor xenografts. Nature of the data set: Biodistribution. The conditions noted are these: PC-3 tumor bearing SCID mice; for tumor retention: initial (15 min) uptake retained in the tumor tissue: 24 hr post-injection relative to the 15 min values.

As to `CSCC[C@H](NC(=O)[C@H](CC(C)C)NC(=O)[C@H](Cc1c[nH]cn1)NC(=O)CNC(=O)[C@@H](NC(=O)[C@H](C)NC(=O)[C@H](Cc1c[nH]c2ccccc12)NC(=O)[C@H](CCC(N)=O)NC(=O)CCC(=O)NCCOCCOCCNC(=O)CN1CCN(CC(=O)O)CCN(CC(=O)O)CCN(CC(=O)O)CC1)C(C)C)C(N)=O` [In-DOTA-8-ADS-BBN(7-14)NH2], the tissue uptake (as a rule, the percentage of the injected dose found per gram of tissue) at 0.25 h in data set [1] was determined as 6.21 ± 1.57 %ID/g. Further, the “tumor retention: initial (15 min) uptake retained in the tumor tissue” value (“tumor retention: initial” for short) in data set [2] is recorded as 19.8%.
On to `CSCC[C@H](NC(=O)[C@H](CC(C)C)NC(=O)[C@H](Cc1cnc[nH]1)NC(=O)CNC(=O)[C@@H](NC(=O)[C@H](C)NC(=O)[C@H](Cc1c[nH]c2ccccc12)NC(=O)[C@H](CCC(N)=O)NC(=O)CCCCCCCNC(=O)CN1CCN(CC(=O)O)CCN(CC(=O)O)CCN(CC(=O)O)CC1)C(C)C)C(N)=O` [In-DOTA-8-AOC-BBN(7-14)NH2], for which the tissue uptake at 0.25 h in data set [1] stood at 6.66 ± 2 %ID/g. In data set [2] (1 hr p.i., i.v.), this molecule returned a Heart of 0.19 ± 0.20 %ID/g. Moreover, in data set [2] (4 hr p.i., i.v., n = 5), the Liver amounted to 0.15 ± 0.02 %ID/g. Besides, in data set [2] (24 hr p.i., i.v., n = 5), the Lung worked out at 0.07 ± 0.03 %ID/g. Moreover, in data set [2], the “tumor retention: initial” value is 11.4%.
For the molecule `CSCC[C@H](NC(=O)[C@H](CC(C)C)NC(=O)[C@H](Cc1cnc[nH]1)NC(=O)CNC(=O)[C@@H](NC(=O)[C@H](C)NC(=O)[C@H](Cc1c[nH]c2ccccc12)NC(=O)[C@H](CCC(N)=O)NC(=O)c1ccc(NC(=O)CN2CCN(CC(=O)O)CCN(CC(=O)O)CCN(CC(=O)O)CC2)cc1)C(C)C)C(N)=O` [In-DOTA-AMBA-BBN(7-14)NH2], in data set [1], the tissue uptake at 0.25 h was found to be 6.36 ± 1.6 %ID/g. For the same molecule, the “tumor retention: initial” value in data set [2] was 26.6%.
